# Measured values published in patent US20250277030A1 (Zymeworks, published 2025).
# T1: human sodium-dependent phosphate transporter 2B (NaPi2b) (human, UniProt O95436 1-690)
# T1 construct: UniProt ID is given as 095436 [sic]; also called hNaPi2b; Hu NaPi2b
# T1 sequence: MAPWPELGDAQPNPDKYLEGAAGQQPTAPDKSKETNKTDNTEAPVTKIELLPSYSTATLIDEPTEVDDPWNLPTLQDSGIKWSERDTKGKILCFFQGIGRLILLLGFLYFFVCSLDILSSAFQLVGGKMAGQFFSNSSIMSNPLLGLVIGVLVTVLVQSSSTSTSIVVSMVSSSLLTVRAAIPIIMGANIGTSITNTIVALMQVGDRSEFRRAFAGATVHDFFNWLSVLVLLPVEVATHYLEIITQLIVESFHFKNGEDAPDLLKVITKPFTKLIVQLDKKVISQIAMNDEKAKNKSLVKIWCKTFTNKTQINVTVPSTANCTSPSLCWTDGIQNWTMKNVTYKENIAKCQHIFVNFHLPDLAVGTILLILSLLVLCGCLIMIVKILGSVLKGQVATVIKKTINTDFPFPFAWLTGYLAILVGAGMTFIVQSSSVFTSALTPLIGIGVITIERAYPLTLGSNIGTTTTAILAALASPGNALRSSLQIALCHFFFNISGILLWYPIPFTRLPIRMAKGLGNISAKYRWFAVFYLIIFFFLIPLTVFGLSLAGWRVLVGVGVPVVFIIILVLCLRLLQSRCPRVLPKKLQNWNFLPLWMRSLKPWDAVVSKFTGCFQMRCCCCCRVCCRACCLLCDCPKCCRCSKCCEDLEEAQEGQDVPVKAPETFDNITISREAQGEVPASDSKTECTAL
# B1: v29456 humanized anti-NaPi2b antibody (H1L2) (antibody, human IgG1, kappa)
# heavy: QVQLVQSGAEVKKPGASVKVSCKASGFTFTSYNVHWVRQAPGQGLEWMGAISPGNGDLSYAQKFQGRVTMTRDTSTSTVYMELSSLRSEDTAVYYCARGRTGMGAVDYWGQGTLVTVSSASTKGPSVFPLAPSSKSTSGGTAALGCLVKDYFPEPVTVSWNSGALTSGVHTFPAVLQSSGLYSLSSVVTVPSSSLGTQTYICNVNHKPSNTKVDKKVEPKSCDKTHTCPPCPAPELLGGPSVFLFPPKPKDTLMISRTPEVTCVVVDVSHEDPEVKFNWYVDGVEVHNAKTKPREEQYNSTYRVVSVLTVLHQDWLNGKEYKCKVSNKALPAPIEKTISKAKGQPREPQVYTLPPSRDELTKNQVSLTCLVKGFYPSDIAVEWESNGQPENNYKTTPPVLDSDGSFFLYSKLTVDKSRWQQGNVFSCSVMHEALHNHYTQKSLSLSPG
# light: DVQMTQSPSSLSASVGDRVTITCRASQDVYSYLNWYQQKPGKAVKLLIYYTSRLQSGVPSRFSGSGSGTDYTLTISSLQPEDFATYYCQQYNIFPWTFGQGTKLEIKRTVAAPSVFIFPPSDEQLKSGTASVVCLLNNFYPREAKVQWKVDNALQSGNSQESVTEQDSKDSTYSLSSTLTLSKADYEKHKVYACEVTHQGLSSPVTKSFNRGEC
# What was measured:
# [1] = biological target: T1, human sodium-dependent phosphate …; assay: flow cytometry, HCC-78 cells (endogenous NaPi2b)
# Procedure: (§1) Briefly, HEK293-6e cells were transfected for ˜24 hours to transiently express human NaPi2b, cynomolgus or mouse NaPi2b, at 1 μg of DNA per 1 million cells. Following transfection, 50,000 cells per well were seeded in V-bottom 96-well plates and incubated with 200 nM of primary antibody for 18-24 hours at 4° C. to prevent internalization. Post-incubation, cells were washed and stained with anti-Human IgG Fc AF647 conjugate (Jackson Immuno Research Labs, West Grove, PA, Cat. No. 109-605-098, Lot. No. 124868) at 4° C. for 1 hour. Following staining and washing, fluorescence was detected by flow cytometry on BD LSRFortessa™ Cell Analyzer (BD Biosciences, Franklin Lake, NJ) with 10,000 minimum events collected per well. The AF647/APC-A GeoMean (fluorescence signal geometric mean, proportional to anti-Human AF647 binding) was calculated for the live singlet cell population for each primary antibody using FlowJo™ v8 software (BD Biosciences, Franklin Lake, NJ). The Bmax and Kd of each primary antibody were calculated using GraphPad Prism Version 9 (GraphPad Software, San Diego, CA)
# (§2) The ability of ADCs to bind to cells expressing NaPi2b was assessed. […] Binding to endogenous high NaPi2b-expressing cell lines IGROV-1 and HCC-78 was assessed by flow cytometry according to methods described in Example 5.
# [2] = biological target: T1, human sodium-dependent phosphate …; assay: flow cytometry, IGROV-1 cells (endogenous NaPi2b)
# Procedure: as §1, §2
# [3] = biological target: T1, human sodium-dependent phosphate …; assay: flow cytometry, HEK293-6e cells transfected with human NaPi2b
# Procedure: The binding cross-reactivity of humanized antibody variant v29456 to human, cynomolgus and mouse NaPi2b was assessed by flow cytometry using HEK293-6e transfected cells.
# as §1
# [4] = biological target: T1, human sodium-dependent phosphate …; assay: flow cytometry, TOV-21G cells (endogenous NaPi2b); apparent Kd
# Procedure: (§3) Briefly, cells were seeded at 50,000 cells/well in conical-bottom 96-well plates and treated with test antibody for 24 hours at 4° C. to prevent internalization. […] Following incubation, cells were washed and stained with anti-Human IgG Fc AF647 conjugate (Jackson Immuno Research Labs, West Grove, PA; Cat. No. 109-605-098) at 4° C. for 30 min. Following incubation and washing, fluorescence was detected by flow cytometry on a BD LSRFortessa™ Cell Analyzer (BD Biosciences, Franklin Lake, NJ) with 1,000 minimum events collected per well. The AF647/APC-A GeoMean (fluorescence signal geometric mean, proportional to anti-Human AF647 binding) was calculated for the live cell population using FlowJo™ Version 10.8.1 (BD Biosciences, Franklin Lake, NJ) and plotted for each test antibody using GraphPad Prism Version 9 (GraphPad Software, San Diego, CA).
# (§4) The ability of the humanized antibody variants v38591 and v29456 to bind to NaPi2b expressed on cells was assessed on endogenous NaPi2b-expressing tumor cell lines IGROV-1 (ovarian adenocarcinoma) and TOV-21G (ovarian carcinoma) by flow cytometry.
# (§5) Cellular binding was performed according to methods described in Example 13.
# [5] = biological target: T2, KLH (Sigma-Aldrich, H8283); assay: non-specific binding ELISA, KLH coated at 5 µg/mL, antibody at 100 nM
# T2 construct: also called keyhole limpet hemocyanin
# Procedure: NS-ELISA was carried out in Corning®96-well EIA/RIA Easy Wash™ Clear Flat Bottom Polystyrene High Bind Microplate coated overnight at 4° C. with 50 μL of Heparin (Sigma, H3149) diluted with 50 mM sodium carbonate pH 9.6 to a final concentration of 250 μg/mL. The plate was incubated for 2 days at room temperature, wells that were coated with heparin were not covered to allow air dry. […] 50 μL each of insulin, KLH, dsDNA and ssDNA were added to a 96 well plate, followed by the incubation at 37° C. for 2 h. The coating materials were removed, and the plate was blocked with 200 μL of Gibco™ PBS pH7.4, 0.1% Tween®20, and incubated for 1 h at room temperature with shaking at 200 rpm. The plate was washed 3 times with Gibco™ PBS pH7.4, 0.1% Tween 20. […] Reactions were stopped after approximately 10 minutes by adding 100 μL of 1 M HCl to each well, and absorbance was read at 450 nm. Binding scores were calculated as the ratio of the ELISA signal of the antibody (antibody-treated) to the signal of a well containing buffer instead of the primary antibody (untreated). The cutoffs considered for each binding molecule (ssDNA, KLH, insulin, dsDNA and heparin) were internally calculated, based on the average of Zymeworks Inc. produced antibodies and antibodies benchmarks published in the literature.
# [6] = biological target: T1, human sodium-dependent phosphate …; assay: flow cytometry on HCC-78 cells (endogenous NaPi2b), 4 C, anti-human IgG Fc AF647 detection
# Procedure: as §1, §2
# [7] = biological target: T1, human sodium-dependent phosphate …; assay: flow cytometry on TOV-21G cells (endogenous NaPi2b), 24 h at 4 C, anti-human IgG Fc AF647 detection
# Procedure: as §3, §4, §5
binder,measurement,setting,value
B1,Bmax,[1],21800
same,Bmax (MFI),[2],78100 MFI
same,Bmax (APC-A GeoMean),[3],2540 APC-A GeoMean
same,Kd,[4],0.6 nM
same,NS-ELISA binding score (ratio of signal between antibody-treated and untreated),[5],1.37 ratio
same,EC50 (read off the curve),[6],~2 nM
same,EC50 (read off the curve),[7],~0.7 nM
